Results published in patent publication US20170240633A1 (published 2017).

biological target: T1, human TIM-3 coupled to human Fc (human, UniProt Q8TDQ0 22-200, limits assumed); test: ELISA on plate-coated human TIM-3 coupled to human Fc
T1 construct: Antigen coated on ELISA plates and immobilised on the SPR chip; not shown: human Fc

Row | Binder | binding result
1 | anti-TIM-3 antibody clone A3 (antibody, V domains shown, From a human phage display library; ELISA screening used Fab-containing supernatants and SPR speaks of 'each candidate Fab'; The format in each assay is not clearly stated) VH: QVQLVQSGAEVKKPGASVKVSCKASGYTFTSYYMHWVRQAPGQGLEWMGIINPSGGSTSYAQKFQGRVTMTRDTSTSTVYMELSSLRSEDTAVYYCARSPGVVTALFDYWGQGTLVTVSS VL: DIQMTQSPSFMSASVGDRVTITCRASQDIGSYLAWYQQKPGKAPKLLIYAASTLQSGVPSRFSGSGSGTDFTLTINSLQPEDFATYYCQQSYSSPPTFGPGTTLEIK | binds
2 | anti-TIM-3 antibody clone B10 (antibody, V domains shown, ELISA and SPR are described for Fab; The format in each assay is not clearly stated) VH: QVQLQESGPGLVKASETLSLTCTVSGGSIGSSDYYWGWIRQPPGKGLEWIGSIYYSGSTYYNPSLKSRVTMSVDTPNNQFSLKLSSVTAADTAVYYCARGEHRGEFDYWGQGTLVTVSS VL: EIVLTQSPATLSFSPGERATLSCRASQSVGSYLAWYQQRPGQAPRPLIYDATNRATGIPTRFSGSGSGTDFTLTISSLEPEDFATYYCQHRRTFGRGTKLEIK | binds
3 | anti-TIM-3 antibody clone G6 (antibody, V domains shown, ELISA and SPR are described for Fab; The format in each assay is not clearly stated) VH: QVQLQESGPGLVKPSGTLSLTCAVSGGSISSSNWWSWVRQPPGKGLEWIGEIYHSGSTNYNPSLKSRVTISVDKSKNQFSLKLSSVTAADTAVYYCARVVAVAGTVDYWGQGTLVTVSS VL: not shown | binds
4 | anti-TIM-3 antibody clone G7 (antibody, V domains shown, ELISA and SPR are described for Fab; The format in each assay is not clearly stated) VH: EVQLVQSGAEVKKPGASVKVSCKASGYTFTSYYMHWVRQAPGQGLEWMGIINPSGGSTSYAQKFQGRVTMTRDTSTSTVYMELSSLRSEDTAVYYCARDQYSSGWYYYGMDVWGQGTTVTVSS VL: not shown | binds
5 | anti-TIM-3 antibody clone G9 (antibody, V domains shown, ELISA and SPR are described for Fab; The format in each assay is not clearly stated) VH: QVQLQQSGAEVKKPGASVKVSCKASGYTFTSYYMHWVRQAPGQGLEWMGIINPSGGSTSYAQKFQGRVTMTRDTSTSTVYMELSSLRSEDTAVYYCARDLYSYGFYYYGMDVWGQGTTVTVSS VL: not shown | binds
6 | anti-TIM-3 antibody clone A11 (antibody, V domains shown, ELISA and SPR are described for Fab; The format in each assay is not clearly stated) VH: QVQLQQWGAGLLKPSETLSLTCAVYGGSFSGYYWSWIRQPPGKGLEWIGEINHSGSTNYNPSLKSRVTISVDTSKNQFSLKLSSVTAADTAVYYCARGYVAGFDYWGQGTLVTVSS VL: QSVVTQPPSVSAAPGQKVTISCSGSSSNIGNNYVSWYQQLPGTAPKLLIYGNNWRPSGIPDRFSGSKSGTSATLAISGLQTGDEADYYCETWDSSLSAGVFGGGTKLTVL | binds
